Measurements from patent US20230212319A1, “NOVEL ANTIGEN BINDING DOMAINS AND SYNTHETIC ANTIGEN RECEPTORS INCORPORATING THE SAME” (University of Southern California, priority 2020, published 2023).

Key:
L428 cells = assay: JNG assay, co-culture with L428 cells; type: cell-based
Method: Cellular supernatant is collected and assayed for the induction of cytokines (e.g., IL2).
JNG (Jurkat cells expressing EGFP under an NFAT promoter) were infected with lentiviral vectors encoding different single chain and multi-chain SARs by spinfection in the presence of 8 µg/ml of Polybrene® (Sigma, Catalog no. H9268). The Jurkat-NFAT-GFP cells are engineered in such a way that the IL-2 promoter, which carries NFAT binding sites, is cloned upstream of the GFP gene. These cells have been used to study signaling via TCR and CAR. The different SARs were stably expressed in Jurkat NFAT-GFP cells by lentiviral mediated gene transfer, followed by selection with puromycin or blasticidin. No drug selection was used in case the construct lacked an antibiotic resistance gene. The SAR-expressing Jurkat-NFAT-GFP cells were cocultured with the target cells at E:T ratio of approximately 1:2 for approximately 4 hours to 18 hours. When the interaction between SIRs and their target antigen results in activation of the NFAT pathway, GFP expression is induced. […] GFP expression was monitored by FACS analysis. The Jurkat-NFAT-GFP (parental) cells were used as control. The structure of different constructs can be determined based on their names. […] The sequence of the other constructs in the table can be similarly determined from their names and by referring to the different Tables of this disclosure that provide the names and SEQ ID NO of the different modules. Alternatively, the composition and modular architecture of the different SAR constructs can be determined from their sequences by bioinformatics tools, including using nucleic acid and amino acids homology searches. […] The signs +/-, +, 2+ etc. after the name of the cell lines indicate the relative degree of positivity on the Jurkat-NFAT-GFP assay as measured by the % GFP positive cells after culture of the SAR expressing Jurkat-NFAT-GFP cells with that cell line above the % GFP cells observed in parental Jurkat NFAT-GFP cells serving as controls. […]

DAUDI (CD20+) cells = type: cell-based
RS411 cells = type: cell-based
RAJI cells = assay: JNG (Jurkat NFAT-GFP) cells expressing SAR: GFP induction on co-culture with RAJI

B1: 22164 (protein)
chain: MALPVTALLLPLALLLHAARPDIQMTQSPSSLSASVGDRVTITCKASDHINNWLAWYQQKPGQAPKLLIYGATTLETGVPSRFSGSGSGTDYTLTISSLQPEDFATYYCQQSWNTPWTFGQGTKLEIKRLEDLKNVFPPEVAVFEPSEAEISHTQKATLVCLATGFYPDHVELSWWVNGKEVHSGVCTDPQPLKEQPALNDSRYCLSSRLRVSATFWQNPRNHFRCQVQFYGLSENDEWTQDRAKPVTQIVSAEAWGRADCGFTSESYQQGVLSATILYEILLGKATLYAVLVSALVLMAMVKRKDSRGRAKRSGSGATNFSLLKQAGDVEENPGPTSATMDWIWRILFLVGAATGAHSGPEVQLVESGGGLVQAGGSLRLSCAASGSVFSGNVMGWYRQAPGKEREWVAAIASGGSIYYRDSVKGRFTISRDNAKNTVYLQMNSLKPEDTAVYYCNSHPPTLPYWGLGTQVTVSSGSGGGGSGGGGSGGGGSFEQVQLQQPGAELVKPGASVKMSCKASGYAFSSYWINWMKQKPGQGLEWIGQIYPGDGDTNYNGKFKGRATLTADTSSSTAYMQLSSLTSEDSAVYFCARSITTVVGCAMDYWGQGTSVTVSSTRIQNPDPAVYQLRDSKSSDKSVCLFTDFDSQTNVSQSKDSDVYITDKCVLDMRSMDFKSNSAVAWSNKSDFACANAFNNSIIPEDTFFPSPESSCDVKLVEKSFETDTNLNFQNLSVIGFRILLLKVAGFNLLMTLRLWSSRAKRSGSGVKQTLNFDLLKLAGDVESNPGPSRGHMTEYKPTVRLATRDDVPRAVRTLAAAFADYPATRHTVDPDRHIERVTELQELFLTRVGLDIGKVWVADDGAAVAVWTTPESVEAGAVFAEIGPRMAELSGSRLAAQQQMEGLLAPHRPKEPAWFLATVGVSPDHQGKGLGSAVVLPGVEAAERAGVPAFLETSAPRNLPFYERLGFTVTADVEVPEGPRTWCMTRKPGA
Which “NFAT-GFP ASSAY: L428” value (L428 cells; co-culture with L428) does the source give for B1 here?
The value was 3+ (refer to approximately 5%, 10%, 20%, 30%, 40% and 50% GFP positive cells).

B2: SEQ ID NO: 22292: D domain (Afo3) binding a p26 domain, attached to the N-terminus of the vL fragment of a hu-mROO5-1 based SIR (protein)
chain: MALPVTALLLPLALLLHAARPACMGSWFEFYDRLNAIDARLWALGGSEAELAAFEKEIAAFESELQAYKGKGNPEVENLRVHAAAIREWLQAYRHNGTGGGGSGGGGSGGGGSEFDIQMTQSPSSLSASVGDRVTITCKASDHINNWLAWYQQKPGQAPKLLIYGATTLETGVPSRFSGSGSGTDYTLTISSLQPEDFATYYCQQSWNTPWTFGQGTKLEIKRLEDLKNVFPPEVAVFEPSEAEISHTQKATLVCLATGFYPDHVELSWWVNGKEVHSGVCTDPQPLKEQPALNDSRYCLSSRLRVSATFWQNPRNHFRCQVQFYGLSENDEWTQDRAKPVTQIVSAEAWGRADCGFTSESYQQGVLSATILYEILLGKATLYAVLVSALVLMAMVKRKDSRGRAKRSGSGATNFSLLKQAGDVEENPGPTSMDWIWRILFLVGAATGAHSFEQVQLQQPGAELVKPGASVKMSCKASGYAFSSYWINWMKQKPGQGLEWIGQIYPGDGDTNYNGKFKGRATLTADTSSSTAYMQLSSLTSEDSAVYFCARSITTVVGCAMDYWGQGTSVTVSSTRIQNPDPAVYQLRDSKSSDKSVCLFTDFDSQTNVSQSKDSDVYITDKCVLDMRSMDFKSNSAVAWSNKSDFACANAFNNSIIPEDTFFPSPESSCDVKLVEKSFETDTNLNFQNLSVIGFRILLLKVAGFNLLMTLRLWSSRAKRSGSGVKQTLNFDLLKLAGDVESNPGPSRGHMTEYKPTVRLATRDDVPRAVRTLAAAFADYPATRHTVDPDRHIERVTELQELFLTRVGLDIGKVWVADDGAAVAVWTTPESVEAGAVFAEIGPRMAELSGSRLAAQQQMEGLLAPHRPKEPAWFLATVGVSPDHQGKGLGSAVVLPGVEAAERAGVPAFLETSAPRNLPFYERLGFTVTADVEVPEGPRTWCMTRKPGA
With B2 as the molecule, how does the GFP induction (L428 cells; L428 cells (CD123+), only in the presence of SAR adaptor bc40-p26-CD123-cg06 (SEQ ID NO: 23120)) read?
Its GFP induction is “robust induction of GFP”.

B3: 22292 (protein)
chain: MALPVTALLLPLALLLHAARPACMGSWFEFYDRLNAIDARLWALGGSEAELAAFEKEIAAFESELQAYKGKGNPEVENLRVHAAAIREWLQAYRHNGTGGGGSGGGGSGGGGSEFDIQMTQSPSSLSASVGDRVTITCKASDHINNWLAWYQQKPGQAPKLLIYGATTLETGVPSRFSGSGSGTDYTLTISSLQPEDFATYYCQQSWNTPWTFGQGTKLEIKRLEDLKNVFPPEVAVFEPSEAEISHTQKATLVCLATGFYPDHVELSWWVNGKEVHSGVCTDPQPLKEQPALNDSRYCLSSRLRVSATFWQNPRNHFRCQVQFYGLSENDEWTQDRAKPVTQIVSAEAWGRADCGFTSESYQQGVLSATILYEILLGKATLYAVLVSALVLMAMVKRKDSRGRAKRSGSGATNFSLLKQAGDVEENPGPTSMDWIWRILFLVGAATGAHSFEQVQLQQPGAELVKPGASVKMSCKASGYAFSSYWINWMKQKPGQGLEWIGQIYPGDGDTNYNGKFKGRATLTADTSSSTAYMQLSSLTSEDSAVYFCARSITTVVGCAMDYWGQGTSVTVSSTRIQNPDPAVYQLRDSKSSDKSVCLFTDFDSQTNVSQSKDSDVYITDKCVLDMRSMDFKSNSAVAWSNKSDFACANAFNNSIIPEDTFFPSPESSCDVKLVEKSFETDTNLNFQNLSVIGFRILLLKVAGFNLLMTLRLWSSRAKRSGSGVKQTLNFDLLKLAGDVESNPGPSRGHMTEYKPTVRLATRDDVPRAVRTLAAAFADYPATRHTVDPDRHIERVTELQELFLTRVGLDIGKVWVADDGAAVAVWTTPESVEAGAVFAEIGPRMAELSGSRLAAQQQMEGLLAPHRPKEPAWFLATVGVSPDHQGKGLGSAVVLPGVEAAERAGVPAFLETSAPRNLPFYERLGFTVTADVEVPEGPRTWCMTRKPGA
For B3, which “NFAT-GFP ASSAY: L428 with bc40-p26-CD123-cg06” value (L428 cells; L428 in presence of SAR adaptor bc40-p26-CD123-cg06) is on record?
The value was “+3”.

B4: 4090 (protein)
chain: MALPVTALLLPLALLLHAARPDIQMTQSPSSLSASVGDRVTITCKASDHINNWLAWYQQKPGQAPKLLIYGATTLETGVPSRFSGSGSGTDYTLTISSLQPEDFATYYCQQSWNTPWTFGQGTKLEIKRLEDLKNVFPPEVAVFEPSEAEISHTQKATLVCLATGFYPDHVELSWWVNGKEVHSGVCTDPQPLKEQPALNDSRYCLSSRLRVSATFWQNPRNHFRCQVQFYGLSENDEWTQDRAKPVTQIVSAEAWGRADCGFTSESYQQGVLSATILYEILLGKATLYAVLVSALVLMAMVKRKDSRGRAKRSGSGATNFSLLKQAGDVEENPGPTSMDWIWRILFLVGAATGAHSGPQVQLQESGGGLAQAGGSLRLSCAASGRTFSMGWFRQAPGKEREFVAAITYSGGSPYYASSVRGRFTISRDNAKNTVYLQMNSLKPEDTAVYYCAANPTYGSDWNAENWGQGTQVTVSSGSGGGGSGGGGSGGGGSFEQVQLQQPGAELVKPGASVKMSCKASGYAFSSYWINWMKQKPGQGLEWIGQIYPGDGDTNYNGKFKGRATLTADTSSSTAYMQLSSLTSEDSAVYFCARSITTVVGCAMDYWGQGTSVTVSSTRIQNPDPAVYQLRDSKSSDKSVCLFTDFDSQTNVSQSKDSDVYITDKCVLDMRSMDFKSNSAVAWSNKSDFACANAFNNSIIPEDTFFPSPESSCDVKLVEKSFETDTNLNFQNLSVIGFRILLLKVAGFNLLMTLRLWSSRAKRSGSGVKQTLNFDLLKLAGDVESNPGPSRGHMTEYKPTVRLATRDDVPRAVRTLAAAFADYPATRHTVDPDRHIERVTELQELFLTRVGLDIGKVWVADDGAAVAVWTTPESVEAGAVFAEIGPRMAELSGSRLAAQQQMEGLLAPHRPKEPAWFLATVGVSPDHQGKGLGSAVVLPGVEAAERAGVPAFLETSAPRNLPFYERLGFTVTADVEVPEGPRTWCMTRKPGA
modifications: Synthetic Polynucloetide
What does the source list for B4?
GFP induction (JNG-GFP induction assay), DAUDI (DAUDI (CD20+) cells): highly positive; GFP induction (JNG-GFP induction assay), RS;411 (RS411 cells): highly positive; GFP induction (JNG-GFP induction assay), RAJI WT (RAJI cells): positive
